# T1: Soybean trypsin inhibitor 1-S type (Sigma, T-2327) (soybean, UniProt P01070 25-205)
# T1 construct: Non-target molecule, amine-coupled to the CM5 chip
# T1 sequence (looked up): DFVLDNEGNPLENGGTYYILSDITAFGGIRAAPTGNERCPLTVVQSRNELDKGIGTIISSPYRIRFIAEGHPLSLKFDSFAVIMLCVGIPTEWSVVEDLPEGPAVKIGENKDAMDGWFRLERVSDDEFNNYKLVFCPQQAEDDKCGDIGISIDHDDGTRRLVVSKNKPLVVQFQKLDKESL
# Assays:
# [1] = target: T2, Recombinant human VEGF165 (Sino Biological, 11066-HNAH) (human, UniProt P15692-4 27-191); test: SPR (Biacore 8K), antibody captured on anti-human capture CM5 chip, antigen as analyte, 1:1 model
# T2 construct: Bought reagent
# Description: (§1) Methods: Anti-Human Capture-CM5 chip was prepared according to the amino coupling method of the Human Antibody Capture Kit. The chip was balanced at room temperature for 20-30 min, and then loaded into Biacore 8K instrument. The transient transduced protein was diluted to experimental working concentration with equilibration buffer. The antigen was diluted to 50 nM with equilibration buffer, and then diluted to seven concentration gradients with a 3-fold dilution, and two zero concentrations (equilibration buffer) and one repeat concentration (usually a repeat of the lowest concentration) were set. According to the order of antibody, antigen, and regeneration, cyclical experimental analysis were performed on 10 antigen concentrations (2 zero concentrations, 7 gradient concentrations and 1 repeat concentration), wherein the antigen injection flow rate was 30 μL/min, binding time was 120 seconds, and dissociation time was 600 seconds. After the analysis was completed, the corresponding analysis program was selected to analyze the data, confirming that there was no obvious reference binding. Kinetics, 1:1 binding modle was selected to fit the data, and the kinetic related parameters Ka, Kd and KD values of human-mouse chimeric antibody and humanized antibody were obtained.
# [2] = target: T3, Recombinant human PD-L1 (Sino Biological, 10084-H08H) (human, UniProt Q9NZQ7 19-239); test: as above
# T3 construct: Bought reagent
# Description: as §1
# [3] = target: T1, Soybean trypsin inhibitor 1-S type …; test: SPR (Biacore 8K), same method as Example 3, soybean trypsin inhibitor on CM5 chip
# Description: (§2) Methods: Series S Sensor Chip CM5 was balanced at room temperature for 20-30 min, and loaded into Biacore 8K instrument. Egg white lysozyme and soybean trypsin inhibitor 1-S type were fixed to the CM5 chip, respectively, using the Amino Coupling Kit. The injection buffer was HBS-EP+1×. 4 balance cycles were setted. The rabbit polyclonal antibody against lysozyme, the antibody against trypsin inhibitor, and the humanized monoclonal antibody were diluted to 1000 nM with equilibration buffer, and the flow rate was set as 5 μL/min, and the injection channels were 1, 2 and 3. The Flow Cells were 1 and 2. The binding time was 10 min, and the dissociation time was 15 min. The regeneration flow rate was 50 μl/min, which is regenerated first with 0.85% phosphoric acid for 60 s, and then with 50 mM sodium hydroxide for 30 s. The results of non-specific adsorption of bispecific antibody HB0025 and non-target molecules are shown in Table 3, and the sensor diagram of the detection of non-specific adsorption of bispecific antibody and non-target molecules is shown in FIG. 3.
# [4] = target: T2, Recombinant human VEGF165 (Sino …); test: SPR (Biacore 8K), same method as Example 2
# Description: as §1
# [5] = target: T3, Recombinant human PD-L1 (Sino …); test: SPR (Biacore 8K), same method as Example 2
# Description: as §1
# [6] = target: T4, Egg white lysozyme (Sigma, L3790) (UniProt P00698 19-147); test: SPR (Biacore 8K), same method as Example 3, lysozyme on CM5 chip
# T4 construct: Non-target molecule, amine-coupled to the CM5 chip
# Description: as §2
# T3 sequence (Q9NZQ7 19-239 limits assumed): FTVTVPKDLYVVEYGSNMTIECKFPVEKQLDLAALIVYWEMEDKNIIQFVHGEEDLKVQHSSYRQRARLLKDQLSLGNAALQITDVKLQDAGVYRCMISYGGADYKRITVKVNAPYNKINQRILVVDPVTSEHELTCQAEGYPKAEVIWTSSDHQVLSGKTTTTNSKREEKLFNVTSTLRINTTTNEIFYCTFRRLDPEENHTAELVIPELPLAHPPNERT
# T2 sequence (P15692 other isoform, or with tags, fused parts or gaps): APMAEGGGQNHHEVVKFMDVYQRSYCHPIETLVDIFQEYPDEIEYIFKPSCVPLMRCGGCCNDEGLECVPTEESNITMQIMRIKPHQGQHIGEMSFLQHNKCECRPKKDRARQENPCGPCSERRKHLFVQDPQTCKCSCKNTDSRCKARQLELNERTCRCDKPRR
# T4 sequence (P00698 19-147 limits assumed): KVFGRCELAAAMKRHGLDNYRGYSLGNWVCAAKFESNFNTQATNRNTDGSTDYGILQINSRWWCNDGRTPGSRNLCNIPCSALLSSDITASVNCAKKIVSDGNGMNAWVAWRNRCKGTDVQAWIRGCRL
Kd [1] [nM],koff [1] [s⁻¹],kon [1] [M⁻¹ s⁻¹],Kd [2] [nM],koff [2] [s⁻¹],kon [2] [M⁻¹ s⁻¹],binding result [3],Kd [4] [nM],koff [4] [s⁻¹],kon [4] [M⁻¹ s⁻¹],Kd [5] [nM],koff [5] [s⁻¹],kon [5] [M⁻¹ s⁻¹],binding result [6],Binder
0.0295,0.00028,9.5e+06,0.844,0.000402,476000,,,,,,,,,"bispecific antibody HB0025 (bifunctional antibody 900387) (bispecific antibody, human IgG1, kappa, L234A L235A, symmetrical molecule with two H and two L chains; also called HB0025-22A3/9E3-ProA-EP; HB0025-22F5/4E6-ProA-EP) heavy: not shown light: DVVMTQTPLSLSVTPGQPASISCKSSQSLANSYGNTYLSWYLHKPGQSPQLLIYGISNRFSGVPDRFSGSGSGTDFTLKISRVEAEDVGVYYCLQGTHQPPTFGQGTKLEIKRTVAAPSVFIFPPSDEQLKSGTASVVCLLNNFYPREAKVQWKVDNALQSGNSQESVTEQDSKDSTYSLSSTLTLSKADYEKHKVYACEVTHQGLSSPVTKSFNRGEC"
,,,,,,no binding,0.0398,0.00041,1.03e+07,0.824,0.000522,633000,no binding,"bispecific antibody 900388 (bispecific antibody, human IgG1, kappa, L234A L235A) heavy: not shown light: DVVMTQTPLSLSVTPGQPASISCKSSQSLANSYGNTYLSWYLHKPGQSPQLLIYGISNRFSGVPDRFSGSGSGTDFTLKISRVEAEDVGVYYCLQGTHQPPTFGQGTKLEIKRTVAAPSVFIFPPSDEQLKSGTASVVCLLNNFYPREAKVQWKVDNALQSGNSQESVTEQDSKDSTYSLSSTLTLSKADYEKHKVYACEVTHQGLSSPVTKSFNRGEC"

# Source: patent publication US20220002418A1 (HUABO BIOPHARM SHANGHAI, published 2022)
